We go through 1 molecule from US20190127473A1 (Dana-Farber, published 2019).

The target of experiment [1] is T1, recombinant human galectin-2 (human, UniProt P05162 2-132, limits assumed).
T1 construct: Bought; also called Gal2; Ga12 (so in the source)
T1 sequence (looked up): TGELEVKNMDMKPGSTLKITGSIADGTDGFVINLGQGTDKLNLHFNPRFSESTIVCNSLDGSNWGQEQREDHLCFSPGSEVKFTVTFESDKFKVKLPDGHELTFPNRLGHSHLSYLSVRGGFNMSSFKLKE
Put plainly: SPR (BIAcore 3000), 8F4 captured by anti-mouse antibody on CM-5 chip, galectin as analyte. The method, then:
(§1) Surface Plasmon Resonance (SPR) analyses (also called Biomolecular Interaction Analysis, BlAcore) were also conducted in order to further define the biophysical properties (e.g., kₒₙ, koff, koffkₒₙ (KD) of Gal1's interaction with the 8F4 mAb. SPR experiments were performed at 25° C. in the standard BlAcore running buffer HBS-EP on a BlAcore 3000 Instrument (BlAcore). In brief, anti-mouse antibody was first captured on the CM-5 sensor chip (GE HealthCare). Afterwards, approximately 250 response units (RU) of the 8F4 anti-Gal1 mAb were immobilized (with exception of ˜350 RU for rmGal1 assay) and followed by various dilutions of recombinant galectin (human galetin-1, 2, 3, 4, 7, 8, 9 or murine galectin-1 (mGal1), from R&D Systems) to assess the binding of galectin to 8F4. All data are shown after subtraction from a channel loaded with buffer alone. Data analysis to obtain the binding curves shown and equilibrium dissociation constant (KD) was performed using BlAevaluation 3.1 (BlAcore) by globally fitting the data to a simple 1:1 (Langmuir) binding model.
For orientation: Surface plasmon resonance follows binding to a sensor surface in real time, without labels.

Experiment [2] has as its target T2, recombinant human galectin-3 (human, UniProt P17931 2-250).
T2 construct: Bought; also called Gal3; Ga13 (so in the source)
Described as above. How it is done:
as §1

The target of experiment [3] is T3, recombinant human galectin-4 (human, UniProt P56470 2-323, limits assumed).
T3 construct: Bought; also called Gal4; Ga14 (so in the source)
T3 sequence (looked up): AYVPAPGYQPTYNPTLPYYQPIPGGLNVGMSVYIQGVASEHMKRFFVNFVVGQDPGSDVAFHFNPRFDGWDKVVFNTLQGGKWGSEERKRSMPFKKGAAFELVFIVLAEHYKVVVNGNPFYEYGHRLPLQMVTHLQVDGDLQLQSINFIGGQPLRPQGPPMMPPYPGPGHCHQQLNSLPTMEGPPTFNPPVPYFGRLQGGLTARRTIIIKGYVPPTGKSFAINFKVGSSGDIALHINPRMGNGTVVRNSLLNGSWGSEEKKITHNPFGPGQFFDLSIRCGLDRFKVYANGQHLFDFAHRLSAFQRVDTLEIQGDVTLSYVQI
The experiment is described as above. How it is done: as §1

For experiment [4], the target named is T4, recombinant human galectin-7 (human, UniProt P47929 2-136, limits assumed).
T4 construct: Bought; also called Gal7; Ga17 (so in the source)
The experiment is described as above. The method, then:
as §1

For experiment [5], the target named is T5, recombinant human galectin-8 (human, UniProt O00214 1-317, limits assumed).
T5 construct: Bought; also called Gal8; Ga18 (so in the source)
T5 sequence (looked up): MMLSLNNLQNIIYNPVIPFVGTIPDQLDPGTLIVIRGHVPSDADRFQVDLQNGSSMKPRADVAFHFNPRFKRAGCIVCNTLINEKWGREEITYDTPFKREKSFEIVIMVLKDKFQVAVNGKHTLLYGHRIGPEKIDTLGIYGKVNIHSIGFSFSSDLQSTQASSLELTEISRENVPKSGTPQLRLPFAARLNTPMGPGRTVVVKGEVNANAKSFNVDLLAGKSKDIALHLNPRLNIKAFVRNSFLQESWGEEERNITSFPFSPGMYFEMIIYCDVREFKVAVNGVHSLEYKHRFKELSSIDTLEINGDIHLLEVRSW
The description is as above. The method, then:
as §1

Experiment [6] concerns the target T6, recombinant human galectin-9 (human, UniProt O00182-2 2-323, limits assumed).
T6 construct: Bought; also called Gal9; Ga19 (so in the source)
The description is as above. The method, then:
as §1

The target in a further experiment is T7, human galectin-1 (Gal1) (human, UniProt P09382 2-135).
T7 construct: Used as recombinant protein bought from R&D Systems (SPR) and as endogenous protein in L428 cell lysate (Western blot); also called hGal1; rhGal1
Put plainly: SPR (BIAcore 3000, 25 C, HBS-EP), 8F4 captured by anti-mouse antibody on CM-5 chip, galectin as analyte, 1:1 Langmuir fit; rhGal1 as analyte; ~250 RU of 8F4 captured. How it is done:
as §1

For the next experiment, the target named is T8, mouse galectin-1 (Gal1) (mouse, UniProt P16045 2-135).
T8 construct: Used as recombinant protein bought from R&D Systems (SPR) and as endogenous protein in B16-F10 cell lysate (Western blot); also called mGal1; rmGal1
Put plainly: SPR (BIAcore 3000, 25 C, HBS-EP), 8F4 captured by anti-mouse antibody on CM-5 chip, galectin as analyte, 1:1 Langmuir fit; rmGal1 as analyte; ~350 RU of 8F4 captured. How it is done:
as §1

T4 sequence (P47929 2-136 limits assumed): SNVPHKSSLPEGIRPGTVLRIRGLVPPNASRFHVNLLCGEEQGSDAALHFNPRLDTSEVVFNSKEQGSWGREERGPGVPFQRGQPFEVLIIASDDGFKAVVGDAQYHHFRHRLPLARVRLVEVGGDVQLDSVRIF
T8 sequence (P16045 2-135 limits assumed): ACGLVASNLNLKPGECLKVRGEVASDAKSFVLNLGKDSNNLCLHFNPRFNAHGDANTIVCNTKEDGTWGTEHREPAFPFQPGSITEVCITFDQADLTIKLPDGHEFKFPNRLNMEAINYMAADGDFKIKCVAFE
T2 sequence (P17931 2-250 limits assumed): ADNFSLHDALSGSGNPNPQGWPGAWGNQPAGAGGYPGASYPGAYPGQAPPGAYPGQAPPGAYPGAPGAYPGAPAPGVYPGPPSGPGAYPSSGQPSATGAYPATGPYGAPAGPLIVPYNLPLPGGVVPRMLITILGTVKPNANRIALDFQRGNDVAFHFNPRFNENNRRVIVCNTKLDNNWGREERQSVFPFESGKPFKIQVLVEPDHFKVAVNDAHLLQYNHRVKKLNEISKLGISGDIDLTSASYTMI
T6 sequence (O00182 other isoform, or with tags, fused parts or gaps limits assumed): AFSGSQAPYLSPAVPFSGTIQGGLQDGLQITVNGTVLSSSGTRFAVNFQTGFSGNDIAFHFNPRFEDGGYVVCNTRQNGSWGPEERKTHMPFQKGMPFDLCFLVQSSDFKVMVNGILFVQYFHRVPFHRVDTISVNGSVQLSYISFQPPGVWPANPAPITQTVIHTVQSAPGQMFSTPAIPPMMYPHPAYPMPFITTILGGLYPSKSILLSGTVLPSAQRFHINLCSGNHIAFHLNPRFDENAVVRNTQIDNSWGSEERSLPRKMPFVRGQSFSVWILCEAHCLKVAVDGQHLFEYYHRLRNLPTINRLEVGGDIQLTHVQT
T7 sequence (P09382 2-135 limits assumed): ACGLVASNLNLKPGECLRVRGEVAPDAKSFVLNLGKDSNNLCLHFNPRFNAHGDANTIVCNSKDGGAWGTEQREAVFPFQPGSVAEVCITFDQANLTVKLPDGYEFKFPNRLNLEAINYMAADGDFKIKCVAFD

B1: 8F4 anti-Gal1 monoclonal antibody (antibody, V domains shown)
VH: EVQLQQSVAEFVRPGASVRLSCTASGFNIKNTYIHWVRQRPEQGLEWIGKIDPANGNTKYVPEFQGKATMTADTSSNTVYLHLSSLTSEDTAIYYCVDGYYGWYFAVWGTGTTVTVSS
VL: QAVVTQESALTTSPGETVTLTCRSSTGAVTTSNYANWVQEKPDHLFTGLIGATNNRAPGVPARFSGSLIGDKAVLTITGAQTEDEAIYFCALWYRNHFIFGSGTKVTVL
notes: Hybridoma monoclonal antibody; The light chain is lambda; Hybridoma 8F4.F8.G7 is deposited as ATCC PTA-10535; also called 8F4 mAb; 8F4.F8.G7
As to B1, the binding result in experiment [1], in experiment [2], in experiment [3], in experiment [4], in experiment [5] and in experiment [6] was “no binding” throughout. The results for the Kd with human galectin-1 (Gal1) and in the experiment with mouse galectin-1 (Gal1) were 0.013 µM and 0.0385 µM, respectively.

By Kd is commonly meant the constant that tells how readily two partners part at equilibrium. A low value points to tighter binding.
